In PMC12148038, “Enhancement of CEP215 dynamics for spindle pole assembly during mitosis” (Journal of Cell Science, 2025):

T1: MBP–CEP215^1814-1877 (human, UniProt Q96SN8 1814-1877)
T1 construct: CEP215 (CDK5RAP2), human, residues 1814-1877; source: E. coli Rosetta (DE3) (pET Duet-1 vector), purified (amylose column, SEC)
T1 sequence (looked up): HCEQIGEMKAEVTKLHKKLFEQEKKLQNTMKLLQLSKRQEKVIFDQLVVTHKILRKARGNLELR


Assays:
[1] = target: MBP–CEP215^1661-1893 (human) (UniProt Q96SN8); assay: ITC; 25 µM MBP–CEP215 1661-1893 in the cell, titrated with 250 µM PCNT fragment, 29 injections, 25°C, MicroCal PEAQ-ITC
[2] = target: the molecule itself; assay: SEC-MALS; each purified protein at 1 to 5 mg/ml on Superdex 200 Increase 5/150 GL with MALS-UV-RI detectors
MBP–CEP215^1814-1877 = target: T1, MBP–CEP215^1814-1877; assay: SEC; mixture of the two purified proteins, size exclusion chromatography followed by SDS-PAGE of the fractions; settings: both partners purified

| Molecule | stoichiometry N [2] | also measured |
| --- | --- | --- |
| PCNT fragment used in the ITC experiment (from UniProt O95613 2350-2450) (domain or fragment) | – | Kd [1]: 164 nM |
| MBP–CEP215^1661-1893 (domain or fragment, human, UniProt Q96SN8 1661-1893, looked up, Homodimer by SEC-MALS; calculated monomer mass with MBP 71.8 kDa; also called CEP215 fragment; source: bacterially expressed (pPROEX vector), purified (amylose column, SEC)) MESDNSFDLFDSSQAVTPKSVSETPPLSGNDTDSLSCDSGSSATSTPCVSRLVTGHHLWASKNGRHVLGLIEDYEALLKQISQGQRLLAEMDIQTQEAPSSTSQELGTKGPHPAPLSKFVSSVSTAKLTLEEAYRRLKLLWRVSLPEDGQCPLHCEQIGEMKAEVTKLHKKLFEQEKKLQNTMKLLQLSKRQEKVIFDQLVVTHKILRKARGNLELRPGGAHPGTCSPSRPGS | 2 | – |
| RPKHVKALLQMVRDESHQILALSEGLAPPSGEP (domain or fragment, human, UniProt O95613 2388-2420, looked up, PCNT (pericentrin), human, residues 2388-2420; source: E. coli Rosetta (DE3) (pET Duet-1 vector), purified (amylose column, SEC)) [MBP–PCNT^2388-2420] | – | binding result (MBP–CEP215^1814-1877): binds |
| PCNT^2350-2450 (domain or fragment, human, UniProt O95613 2350-2450, looked up, PCNT (pericentrin), human, residues 2350-2450; Homodimer by SEC-MALS; calculated monomer mass 11.3 kDa, which fits a fragment without MBP; source: bacterially expressed, purified (amylose column, TEV cleavage, anion exchange, SEC)) RLSPGSGGPEAQTAGPVTPASISGRFQPLPEAMKEKEVRPKHVKALLQMVRDESHQILALSEGLAPPSGEPHPPRKEDEIQDISLHGGKTQEVPTACPDWR | 2 | – |
